# Test results taken from publication PMC2064962, “Inhibition of Protein Aggregation: Supramolecular Assemblies of Arginine Hold the Key” (PLoS ONE, 2007).
# B1: Mouse Alzheimer's amyloid beta 1-42 peptide (peptide)
# peptide: DAEFGHDSGFEVRHQKLVFFAEDVGSNKGAIIGLMVGGVVIA
# notes: Amyloid beta 1-42, the cut product of mouse amyloid precursor protein (APP); numbers count on: the Aβ peptide; it was removed; also called Aβ_(1-42); mouse Aβ_(1-42); source: synthetic peptide (Fmoc chemistry, purified on ProRPC C-18); dissolved in 0.01 M NaOH before use
# Biological target: the molecule itself
# Assay: SEC; SMART Superdex G75 column, 0.02 M sodium phosphate buffer pH 7.4 (PB), with or without 0.2 M arginine; 10 µg peptide in 50 µl, flow 100 µl/min, monitored at 257 nm; self-association, monomer and tetramer seen
protein,measurement,value
B1,stoichiometry N,4
